T1: hSTEAP2 fused to GFP (Homo sapiens, UniProt Q8NFT2)
T1 construct: expressed in transfected cells; host or cells: HEK293
T1 sequence (Q8NFT2 1-490): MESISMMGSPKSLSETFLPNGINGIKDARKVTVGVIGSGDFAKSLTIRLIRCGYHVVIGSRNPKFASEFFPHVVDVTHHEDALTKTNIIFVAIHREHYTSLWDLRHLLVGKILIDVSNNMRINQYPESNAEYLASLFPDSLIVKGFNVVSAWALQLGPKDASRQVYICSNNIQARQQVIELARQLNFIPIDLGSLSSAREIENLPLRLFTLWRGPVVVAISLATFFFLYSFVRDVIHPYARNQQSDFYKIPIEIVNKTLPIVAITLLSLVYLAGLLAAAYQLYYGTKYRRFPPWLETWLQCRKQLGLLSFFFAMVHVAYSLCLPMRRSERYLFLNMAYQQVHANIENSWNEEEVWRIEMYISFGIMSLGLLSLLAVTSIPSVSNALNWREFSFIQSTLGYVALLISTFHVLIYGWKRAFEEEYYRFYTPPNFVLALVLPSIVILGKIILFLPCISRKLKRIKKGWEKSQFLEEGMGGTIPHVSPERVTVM

T2: hSTEAP3 fused to GFP (Homo sapiens, UniProt Q658P3)
T2 construct: expressed in transfected cells; host or cells: HEK293
T2 sequence (Q658P3 1-488): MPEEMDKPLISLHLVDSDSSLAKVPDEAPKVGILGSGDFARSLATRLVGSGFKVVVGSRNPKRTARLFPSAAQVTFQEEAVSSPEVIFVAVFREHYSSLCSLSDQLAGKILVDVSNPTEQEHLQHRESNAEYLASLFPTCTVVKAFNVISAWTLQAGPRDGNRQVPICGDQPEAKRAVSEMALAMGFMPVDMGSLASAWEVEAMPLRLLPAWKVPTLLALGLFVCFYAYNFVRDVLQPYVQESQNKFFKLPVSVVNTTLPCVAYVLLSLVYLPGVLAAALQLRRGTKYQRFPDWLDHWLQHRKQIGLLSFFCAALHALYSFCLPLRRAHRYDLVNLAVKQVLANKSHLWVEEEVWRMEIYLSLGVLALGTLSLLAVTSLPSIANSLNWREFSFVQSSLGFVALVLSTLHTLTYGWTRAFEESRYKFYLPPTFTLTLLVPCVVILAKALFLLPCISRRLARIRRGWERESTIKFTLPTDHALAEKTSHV

T3: hSTEAP4 fused to GFP (Homo sapiens, UniProt Q687X5)
T3 construct: expressed in transfected cells; host or cells: HEK293
T3 sequence (Q687X5 1-459): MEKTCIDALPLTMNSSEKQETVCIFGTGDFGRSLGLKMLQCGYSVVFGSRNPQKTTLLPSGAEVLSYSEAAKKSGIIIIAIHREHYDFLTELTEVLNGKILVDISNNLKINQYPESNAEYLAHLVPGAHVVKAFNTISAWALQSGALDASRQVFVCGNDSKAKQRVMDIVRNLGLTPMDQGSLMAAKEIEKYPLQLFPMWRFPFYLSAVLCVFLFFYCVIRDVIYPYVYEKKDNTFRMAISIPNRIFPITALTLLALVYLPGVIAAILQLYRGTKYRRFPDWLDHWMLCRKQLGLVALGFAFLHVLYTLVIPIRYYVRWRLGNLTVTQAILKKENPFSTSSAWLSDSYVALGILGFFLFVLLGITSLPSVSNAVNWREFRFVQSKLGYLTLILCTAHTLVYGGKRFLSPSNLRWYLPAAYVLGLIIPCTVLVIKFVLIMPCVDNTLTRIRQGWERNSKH

B1: BSSTEAP2/CD3-011: STEAP2×CD3 bispecific: anti-STEAP2 H1H7809N (SEQ 330), anti-CD3 H1H7203P (SEQ 1474), common LCVR of H1H7809N (antibody, V domains shown)
VH 1: QVQLVESGGGVVQPGRSLGLSCAASGFTFSSYGMHWVRQAPGKGLEWVAVIWYDGSNKYYVDSVKGRFTISRDNSKNTLYLQMNSLRAEDTAVYYCAREGLRFLENYYYYYGMDVWGQGTTVTVSS
VH 2: EVQLVQSGGGLVQPGRSLRLSCAASGFTFADYTMHWVRQTPGKGLEWVSGISWNSGSKDYADSVKGRFTISRDNAKNSLYLQMNSLRTEDTALYYCAKYGSGYGRYFFYAMDVWGQGTTVTVSS
VL: EIVLTQSPGTLSLSPGERATLSCRASQSISSTYLAWYQQRPGQAPRLLIYGASSRATGIPDRFSGSGSGTDFTLTISRLEPEDFAVYYCQQYGTSPYTFGQGTKLEIK
B2: H1H7972P: anti-STEAP2 antibody, HCVR/LCVR SEQ ID NOs 186/194 (antibody, V domains shown)
VH: QVQLQQSGPGLVKPSQTLSLTCAISGDSVSSNSAAWNWIRQSPSRGLEWLGRTYYRSKWYNDYVVSVKSRIIFNPDTSKNQFSLQLNSVTPEDTAVYYCARVRQDYRSGPFDYWGQGTLVTVSS
VL: EIVMTQSPVTLSVSPGERATLSCWASQSVSSSLAWYQQKPGQAPRLLIYGASTRATGIPARFSGSGSGTGFTLTISSLQSEDFAVYYCQQYNNWPFTFGPGTKVDIK
B3: H1H11162N: human-Fc anti-STEAP2 antibody, HCVR/LCVR SEQ ID NOs 250/258 (antibody, V domains shown)
VH: QVQLQQSGPGLVKPSQTLSLTCAISGDSVSSNRAAWNWIRQSPSRGLQWLGRTYYRSKWYNDYAVSLRSRITINPVTSKNQVALHMNSVTPEDTAVYYCARAGIVVVPGPETFYYYDHGLDVWGQGTTVTVSS
VL: DIQMTQSPSSLSASVGDRVTITCRASQSIRSYLNWYQQKPGKAPELLIHAASSLQSGVPSRFSGSGSGTDFTLTISSLQPEDFASYYCQQSYSAPPITFGQGTRLEIK
modifications: human Fc

Columns and labels:
[1] = test system: PC3_STEAP2/1 cells (PC3 engineered to express a STEAP2/1 chimeric construct); assay: FACS binding titration of STEAP2xCD3 bispecifics on PC3_STEAP2/1 cells; parameters: species or system human; conditions: 66.6 nM to 0.001 nM, 30 minutes at 4° C.
Protocol: (§1) FACS Binding Titration on Jurkat Cells, PC3_STEAP2/1 Cells and cynomolgus T Cells: Flow cytometric analysis was utilized to determine binding of STEAP2×CD3 bispecific antibodies to Jurkat, PC3_STEAP2/1 chimeric and cynomolgus T cells, followed by detection with a phycoerythrin (PE)-labeled anti-human IgG antibody. Briefly, 2×10^5 cells/well were incubated for 30 minutes at 4° C. with a serial dilution of STEAP2×CD3 bispecific antibodies or control antibody (a human IgG1 antibody that binds a feline antigen with no cross-reactivity to STEAP2 or human or cynomolgus CD3) ranging from 66.6 nM to 0.001 nM. After incubation, the cells were washed twice with cold PBS containing 1% filtered FBS and a PE-conjugated anti-human secondary antibody was added to the cells and incubated for an additional 30 minutes. Wells containing no antibody or secondary antibody only were used as a control. After incubation, cells were washed, re-suspended in 200 μL cold PBS containing 1% filtered FBS and analyzed by flow cytometry on a BD FACS Canto II.

[2] = test system: cynomolgus T cells; assay: FACS binding titration of STEAP2xCD3 bispecifics on cynomolgus T cells; conditions: 66.6 nM to 0.001 nM, 30 minutes at 4° C.
Protocol: as §1

[3] = test system: monkey PBMCs; assay: T cell proliferation assay, cynomolgus PBMC; type: cell-based; conditions: donor mk8781M; anti-CD28 500 ng/mL, 72 hours; read-out: Cyno PBMC Proliferation [M] (donor)
Protocol: Thawed human or freshly isolated monkey PBMCs (50,000 cells/well) were incubated with 3-fold (human, concentration range: 5E-10M to 2.82E-15M; cynomolgus, concentration range: 1E-09M to 4.57E-13M) serial dilutions of STEAP2×CD3 bispecifics or isotype control in complete medium (RPMI supplemented with 10% FBS, 100 U/mL penicillin, 100 μg/mL streptomycin, 292 μg/mL L-glutamine) and a fixed concentration (human: 200 ng/mL, cyno: 500 ng/mL) of a commercial anti-CD28 antibody (Biolegend, Catalog #302914) in white flat bottom 96-well plates for 72 hours at 37° C. Isolated monkey PBMCs were from two donors (identified as mk8781M or mk9381M). Following incubation, CellTiter Glo® (Promega, Cat #7573) was added and luminescence, as readout for cell viability, was measured using a VICTOR X5 multi-label plate reader. Cell titer was calculated by dividing the luminescence of stimulated cells by the baseline luminescence of unstimulated cells.

[4] = test system: FADU cells (STEAP2 negative); assay: FACS binding to STEAP2-negative FADU cells; conditions: human-Fc antibodies
Protocol: (§2) The ability of anti-STEAP2 antibodies to selectively bind to human six-transmembrane epithelial antigen of prostate 2 (STEAP2) endogenously expressing cell lines was determined via FACS analysis.
(§3) Briefly, 1×10^5 cells were incubated with 10 μg/ml of anti STEAP2 antibodies, or isotype control antibodies for 30 min on ice in antibody dilution buffer. Following one wash with antibody dilution buffer, cells were incubated with 10 μg/ml of PE conjugated anti-human or anti mouse Fc secondary antibodies for 30 min on ice. Following one additional wash, samples were incubated with Cytofix (1% formaldehyde) for 20 minutes. After one final wash, samples were filtered through a Pall 96 well filtration block, run on a Hypercyt® cytometer and analyzed in ForeCyt™ (IntelliCyt, Albuquerque, N. Mex.). Mean fluorescence intensities (MFI) were expressed as fold change above unstained levels (background). The average fold above background at antibody concentrations of 100-300 nM were determined. For cell binding EC50 determinations, mAb concentrations ranged from 300 nM to […] and EC50 values were determined from a four-parameter logistic equation over a 12-point response curve (GraphPad Prism).

[5] = test system: SKBR3 cells (STEAP2 negative); assay: FACS binding to STEAP2-negative SKBR3 cells; conditions: human-Fc antibodies
Protocol: as §2, §3

[6] = test system: Raji cells (STEAP2 negative); assay: FACS binding to STEAP2-negative Raji cells; conditions: human-Fc antibodies
Protocol: as §2, §3

[7] = test system: C4-2 cells (high-STEAP2 expressing); assay: Internalization and total binding on C4-2 cells (imaging, qualitative score); type: cell-based, human; parameters: key: − (no internalization or binding); +(weak internalization or binding); ++(moderate internalization or binding); +++(robust internalization or binding); conditions: 10 μg/ml antibody
Protocol: Briefly, 20,000 C4-2 cells were seeded in PDL coated 96 well plates. The next day, cells were incubated with anti-human STEAP2 antibodies (10 μg/ml) for 30 min on ice followed by two PBS washes. Cells were then incubated with alexa488-conjugated anti-hFc Fab secondary antibody for 30 minutes on ice, followed by two additional PBS washes. Antibodies were allowed to internalize for 1 h at 37° C. in internalization buffer (PBS+2% FBS) or were maintained at 4° C. Cells were fixed in 4% formaldehyde, nuclei were stained with DRAQ5 (Cell signaling), and images were acquired on the ImageXpress micro XL (Molecular Devices).
A qualitative visual assessment of the total binding intensity and the intensity of antibodies that had internalized into vesicles was performed and scored according to the following criteria: − (no internalization or binding), +(weak internalization or binding), ++(moderate internalization or binding) and +++(robust internalization or binding).

[8] = target: T4, hSTEAP1 fused to GFP (Homo sapiens, UniProt Q9UHE8); assay: Specificity: binding to HEK293 cells transfected with hSTEAP1-GFP; parameters: key: Wells with GFP positive cells that bound anti STEAP2 antibodies were scored as positive (+); those that did not bind anti STEAP2 antibodies were scored as negative (−); conditions: transient transfection, 48 h
T4 construct: expressed in transfected cells; host or cells: HEK293
Protocol: (§4) Selected STEAP2 antibodies were then tested for binding to other human (h) STEAP family members (STEAP1, STEAP3, and STEAP4). To assess anti STEAP2 antibody specificity, plasmid constructs expressing hSTEAP1, hSTEAP2, hSTEAP3 or hSTEAP4 fused to Green Fluorescent Protein (GFP) were transiently introduced into HEK293 cells via lipofectamine 2000 based methodology. After 48 h, transiently transfected cells were stained with anti STEAP2 antibodies and imaged as described above for the internalization assay.

[9] = target: T1, hSTEAP2 fused to GFP; assay: Specificity: binding to HEK293 cells transfected with hSTEAP2-GFP; parameters: key: Wells with GFP positive cells that bound anti STEAP2 antibodies were scored as positive (+); those that did not bind anti STEAP2 antibodies were scored as negative (−); conditions: transient transfection, 48 h
Protocol: as §4

[10] = target: T2, hSTEAP3 fused to GFP; assay: Specificity: binding to HEK293 cells transfected with hSTEAP3-GFP; parameters: key: Wells with GFP positive cells that bound anti STEAP2 antibodies were scored as positive (+); those that did not bind anti STEAP2 antibodies were scored as negative (−); conditions: transient transfection, 48 h
Protocol: as §4

[11] = target: T3, hSTEAP4 fused to GFP; assay: Specificity: binding to HEK293 cells transfected with hSTEAP4-GFP; parameters: key: Wells with GFP positive cells that bound anti STEAP2 antibodies were scored as positive (+); those that did not bind anti STEAP2 antibodies were scored as negative (−); conditions: transient transfection, 48 h
Protocol: as §4

T4 sequence (Q9UHE8 whole entry, the tested form may be a part): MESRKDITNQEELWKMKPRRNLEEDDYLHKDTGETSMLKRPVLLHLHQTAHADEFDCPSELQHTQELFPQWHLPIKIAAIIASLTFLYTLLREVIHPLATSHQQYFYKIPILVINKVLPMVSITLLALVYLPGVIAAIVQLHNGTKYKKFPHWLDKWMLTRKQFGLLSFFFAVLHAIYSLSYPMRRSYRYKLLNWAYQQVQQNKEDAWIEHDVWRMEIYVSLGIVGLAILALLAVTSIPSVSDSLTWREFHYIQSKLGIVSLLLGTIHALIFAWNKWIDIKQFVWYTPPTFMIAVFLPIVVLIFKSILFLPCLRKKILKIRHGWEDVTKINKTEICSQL

Molecule | FACS PC3_STEAP2/1 EC50 [M] [1] | Cynomolgus T cells EC50 [M] [2] | EC50 [3] | FADU Avg F.A.B (Fold Above Background) [4] | SKBR3 Avg F.A.B (Fold Above Background) [5] | Raji Avg F.A.B (Fold Above Background) [6] | Internalization (37° C., 1 h) Qualitative Score [7] | Total Binding (4° C.) Qualitative Score [7] | Binding to hSTEAP1-GFP transfected HEK293 cells [8] | Binding to hSTEAP2-GFP transfected HEK293 cells [9] | Binding to hSTEAP3-GFP transfected HEK293 cells [10] | Binding to hSTEAP4-GFP transfected HEK293 cells [11]
B1 | No Binding | No Binding | 3.6e-12 M |  |  |  |  |  |  |  |  | 
B2 |  |  |  | 2 fold | 3 fold | 59 fold | + | + | − | + | − | −
B3 |  |  |  | 3 fold | 3 fold | 2 fold | +++ | +++ |  |  |  | 

Reference: US10772972B2, “Anti-STEAP2 antibody drug conjugates, and compositions and uses thereof” (Regeneron Pharmaceuticals, Inc., priority 2016, dated 2020)
